Test results reported in patent US20250025502A1, “COMPOSITIONS AND METHODS FOR CONTROLLING CELL SIGNALING WITH CHIMERIC RECEPTORS” (GentiBio, Inc., priority 2021, published 2025).

Tested on: IL10 signaling pathway (STAT3)
Assay: SEAP colorimetric assay in reporter cells with RISE10 constructs
Assay type: cell-based
Method: FIG. 8 provides an example of CISC signaling through the IL10 signaling pathway. Cells were treated with IL10 or rapamycin at varying doses.
The signaling activity of RISE10 constructs (FIGS. 2 and 7) was examined. InvivoGen HEK-BLUE™ IL2 reporter cells, in which production of STAT3 (from IL10 signaling) leads to release of secreted embryonic alkaline phosphatase (SEAP), were used. The reporter cells were transfected with different levels of IL10, rapamycin and the RISE10 construct with a synthetic linker, (G4S)×3 (“CISC10 RaL”), or rapamycin and the RISE10 construct with IL10 hinge domains (“CISC10 RhL”). A colorimetric enzyme assay was performed to quantify the secreted embryonic alkaline phosphatase, and the results are shown in FIG. 8.

B1: IL10: interleukin IL10 used as stimulus for comparison in the reporter assay (protein, UniProt P22301 19-178, looked up)
Interleukin-10: SPGQGTQSENSCTHFPGNLPNMLRDLRDAFSRVKTFFQMKDQLDNLLLKESLLEDFKGYLGCQALSEMIQFYLEEVMPQAENQDPDIKAHVNSLGENLKTLRLRLRRCHRFLPCENKSKAVEQVKNAFNKLQEKGIYKAMSEFDIFINYIEAYMTMKIRN
Q: B1 was tested. Which “IL10 dose giving similar peak plateau (SEAP)” value did it give?
A: Its value is 10 ng/mL.
